Experimental data from US20110300156A1 (Genmab, published 2011).

T1: murine tissue factor (TF) on transfected HEK293F cells (murine, UniProt P20352 29-294)
T1 construct: whole, on cells; also called murine TF; TFmm
T1 sequence (looked up): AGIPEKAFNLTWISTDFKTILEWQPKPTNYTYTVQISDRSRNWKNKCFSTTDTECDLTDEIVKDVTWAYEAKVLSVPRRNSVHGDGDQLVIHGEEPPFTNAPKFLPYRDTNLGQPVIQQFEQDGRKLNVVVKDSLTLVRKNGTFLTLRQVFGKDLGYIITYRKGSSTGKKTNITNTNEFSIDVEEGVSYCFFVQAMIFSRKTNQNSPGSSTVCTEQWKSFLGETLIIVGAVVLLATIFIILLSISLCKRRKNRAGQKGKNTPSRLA

B1: anti-TF HuMab 003 (antibody, V domains shown)
VH: QVQLVQSGAEVKKPGSSVKVSCKAPRGTFSYYTISWVRQAPGQGLEWMGRIIPILGVANYAQKFQGRVTITADKSTSTAYMELSSLRSEDTAVYYCAREGDRRYFDYWGQGTLVTVSS
VL: AIQLTQSPSSLSASVGDRVTITCRASQDISSALAWYQQKPGKAPKLLIYDASILESGVPSRFSGSGSGTDFTLTISSLQPEDFATYYCQQFNSYPLTFGGGTKVEIK
notes: Human monoclonal antibody from HuMab mice; also called HuMab-TF-003
B2: anti-TF HuMab 098 (antibody, V domains shown)
VH: QVQLVQSGAEVRKPGSSVKVSCKASGGSFNNYPIFWVRQAPGQGFEWMGRIIPILGITAYAQKFQGRVTITADKSTSTAYMELNSLRSEDTAVYYCAGGDDLDAFDIWGQGTMVSVSS
VL: DIQMTQSPSSLSASVGDRVTITCRASQGISSWLAWYQQKPEKAPKSLIYAASSLQSGVPSRFSGSGSGTDFTLTISSLQPEDFATYYCQQYNSYPYTFGQGTKLEIK
notes: Human monoclonal antibody from HuMab mice; also called HuMab-TF-098; HuMab-TF-98

Legend:
[1] = target: T2, human tissue factor (TF), membrane-bound on cells (human, UniProt P13726 33-295); experiment: FACS, A431 cells
T2 construct: whole, on cells; also called cellular TF
Protocol: (§1) Cells were resuspended in PBS (2×10⁶ cells/ml), put in 96-well V-bottom plates (50 μl/well). 50 μl of serially diluted HuMab in FACS buffer (PBS supplemented with 0.1% BSA and 0.02% Na-azide) was added to the cells and incubated for 30 minutes on ice. After washing three times with FACS buffer, 50 μl of phycoerythrin (PE)-conjugated goat anti-human IgGFc (Jackson ImmunoResearch), diluted 1:100 in FACS buffer, was added. After 30 minutes on ice (in the dark), cells were washed three times, and specific binding of the HuMabs was detected by flow cytometry on a FACSCalibur (BD Biosciences). HuMab-KLH was used as a negative control. Mouse anti-TF followed by PE-conjugated anti-mouse IgGFc was used as positive control. Binding curves were analyzed using non-linear regression (sigmoidal dose-response with variable slope) using GraphPad Prism V4.03 software (GraphPad Software, San Diego, Calif., USA).

[2] = target: T2, human tissue factor (TF), …; experiment: FACS, Bx-PC3 cells
Protocol: as §1

[3] = target: T2, human tissue factor (TF), …; experiment: FACS, MDA-MB-231 cells
Protocol: as §1

[4] = target: T2, human tissue factor (TF), …; experiment: cell-based or functional assay
[5] = target: T2, human tissue factor (TF), …; experiment: cell-based or functional assay; remark: listed apart in the source
TF (Innovin) [6] = target: T3, TF (Innovin) (UniProt P13726 33-295, limits assumed); experiment: cell-based or functional assay
TF (Innovin) [7] = target: T3, TF (Innovin); experiment: cell-based or functional assay; remark: listed apart in the source
[8] = target: T2, human tissue factor (TF), …; experiment: cell-based or functional assay; remark: listed apart in the source
[9] = target: T2, human tissue factor (TF), …; experiment: FACS, A431 cells, 30 µg/mL
Protocol: as §1

[10] = target: T2, human tissue factor (TF), …; experiment: FACS, Bx-PC3 cells, 30 µg/mL
Protocol: as §1

[11] = target: T2, human tissue factor (TF), …; experiment: FACS, MDA-MB-231 cells, 30 µg/mL
Protocol: as §1

[12] = target: T4, TFECDHis (extracellular domain of tissue factor, amino acid 1-251, with C-terminal His tag) (human, UniProt P13726 33-251); experiment: ELISA, coated TFECDHis, mean of 3
T4 construct: range 1-251; The stated range 1-251 starts at residue 1 of NP-001984; also called extracellular domain of TF
Protocol: The specificity of the obtained anti-TF HuMabs was evaluated by ELISA. ELISA plates (Microlon; Greiner Bio-One) were coated overnight at +4° C. with 0.5 μg/mL of TFECDHis in PBS, pH 7.4. Coated ELISA plates were emptied and blocked for one hour at room temperature with 2% (v/v) chicken serum (Gibco, Paisley, Scotland) in PBS and washed with PBS containing 0.05% Tween 20 (PBST). Subsequently, HuMabs, serially diluted in PBSTC (PBS supplemented with 2% (v/v) chicken serum and 0.05% (v/v) Tween-20), were incubated for 1 hr at RT under shaking conditions (300 rpm). Bound HuMabs were detected using HRP-conjugated goat-anti-human IgG antibodies (Jackson ImmunoResearch) diluted 1:5,000 in PBSTC, which were incubated for 1 hr at RT under shaking conditions (300 rpm). […] HuMab-KLH (a human monoclonal antibody against KLH (keyhole limpet haemocyanin)), was used as a negative control. Mouse anti-human TF (ERL) was used as positive control (HRP labeled anti-mouse IgG as conjugate). Binding curves were analyzed using non-linear regression (sigmoidal dose-response with variable slope) using GraphPad Prism V4.03 software.

[13] = target: T2, human tissue factor (TF), …; experiment: FACS, TF transfected CHO cells (S1015-TF)
Protocol: as §1

[14] = target: T2, human tissue factor (TF), …; experiment: FACS, TF transfected CHO cells (S1015-TF), 7.5 µg/mL
Protocol: as §1

[15] = target: T4, TFECDHis (extracellular domain of …); experiment: SPR BIAcore 3000, HuMab immobilized, TFECDHis analyte
Protocol: (§2) Antibody binding to TF was analyzed by surface plasmon resonance in a BIAcore 3000 (GE Healthcare). TFECDHis was used for the analysis. HuMab antibodies (500 resonance units) were immobilized on the CM-5 sensor chip according to the procedure recommended by the manufacturer. Briefly, after surface activation by EDC and NHS HuMab antibody was injected over the activated CM-5 surface in 10 mM sodium-acetate, pH ranging from 4.0 to 5.5 at 5 μl/min. followed by 1 M Ethanolamine for deactivation. Concentration series of TFECDHis in HBS-EP buffer were injected over the immobilized antibodies at a flow rate of 30 μl/min for 180 sec. Regeneration of the HuMab surface was performed by injection of 10 mM Glycine-HCl pH 2.0 or 10 mM sodium acetate pH 3.0. Kinetic analysis was performed using double reference subtraction and model 1:1 (langmuir) binding analysis.

[16] = target: T4, TFECDHis (extracellular domain of …); experiment: competition ELISA, inhibition of FVIIa (100 nM) binding to coated TFECDHis
Protocol: ELISA plates were coated overnight with TFECDHis (0.5 μg/mL, 100 μL per well). Plates were emptied, blocked with PBS containing 2% (v/v) chicken serum (1 hour, RT), and emptied again. […] Plates were washed and incubated with swine-anti-rabbit IgG-HRP antibody (1:2,500; DAKO). After washing, the immune complexes were visualized using ABTS as a substrate.

[17] = target: T1, murine tissue factor (TF) on …; experiment: FACS on transfected HEK293F cells, 30 µg/mL antibody [panel A]
[18] = target: T1, murine tissue factor (TF) on …; experiment: FACS on transfected HEK293F cells, 30 µg/mL antibody [panel K]
[19] = target: T2, human tissue factor (TF), …; experiment: FACS on MDA-MB-231 cells (~900.000 TF molecules/cell) [panel MDA-MB-231 cells]
Protocol: as §1
Binding of anti-TF HuMabs to membrane-bound TF on cell lines expressing different levels of TF was determined by FACS analysis, essentially as described supra. Mouse anti-TF antibody followed by PE-conjugated anti-mouse IgGFc was used as a positive control. Fluorescence was measured on a FACSCantoII. Binding curves were analyzed essentially as described supra, using GraphPad Prism 5 software. The amount of TF molecules on cell lines was determined by Qifi kit (Dako, Glostrup, Denmark), according to the manufacturer's instructions.

[20] = target: T4, TFECDHis (extracellular domain of …); experiment: SPR avidity format: TFECDHis immobilized, bivalent HuMab as analyte (printed as avidity nM)
Protocol: as §2
TF (TFECDHis) binding to TF-specific HuMabs was determined essentially as described above, with TFECDHis being immobilized on the CM-5 sensor chip (300 resonance units), and concentration series of Humab antibodies used for kinetic analysis. Kinetic analysis was performed using double reference subtraction and model 1:1 (langmuir) binding analysis.

Binder | EC50 [1] [nM] | EC50 [2] [nM] | EC50 [3] [nM] | % max inhibition of FVIIa induced ERK phosphorylation (A431) [4] [%] | IC50, inhibition of FVIIa induced ERK phosphorylation (A431) [4] [nM] | IC50, inhibition of FVIIa induced IL-8 release (MDA-MB-231) [5] [nM] | max inhibition of FVIIa induced IL-8 release (MDA-MB-231) [5] [%] | % max inhibition of FXa generation (TF (Innovin) [6]) [%] | IC50, inhibition of FXa generation (TF (Innovin) [6]) [nM] | EC50 of ADCC, Bx-PC3 cells [8] [nM] | EC50 of ADCC, MDA-MB-231 cells [8] [nM] | Max MFI [9] | Max MFI [10] | Max MFI [11] | EC50 [13] [nM] | Max MFI [14] | IC50 [16] [nM] | max inhibition [16] [%] | further results
B1 | 6.94 | 4.98 | 3.2 | 63 | 7.99 | 23.7 | 76.2 | 21 | 0.07 | 0.17 | 0.29 | 2530 | 1110 | 1800 | 2.06 | 4250 | 1.9 | 89 | IC50, inhibition of blood coagulation (TF induced clotting time) (TF (Innovin) [7]): 7.3 nM; EC50 [12]: 0.46 nM; Kd [15]: 4.51 nM; binding result [17]: binds
B2 | 1.4 | 1.38 | 0.99 | 64 | 1.89 | 9.3 | 59 | 14 | 0.43 | 0.02 | 0.15 | 2760 | 1150 | 1960 | 0.96 | 5230 | 0.8 | 85 | EC50 of ADCC, A431 cells [8]: 0.07 nM; binding result [18]: no binding (tested: 30 µg/mL); EC50 (read off the curve) [19]: ~0.05 µg/mL; Kd [20]: 4.85 nM
